# B1: RUCILP2: 87 amino acid irisin-like polypeptide cleaved from the Ruminococcus torques FNDC5-like protein RUMTOR_00181; recombinant, 6-His-tagged from E. coli (protein)
# chain: APVDVKVSEITETSAKASWKNAADGKEAAGYNVYVDGVKLNKELLTEASCGLTNLKAETTYFVEVTAVDAAGNESVKSEKVTFKTLK
# modifications: 6-His tag; Ruminococcus torques
# notes: 87 amino acid irisin-like polypeptide cleaved from the Ruminococcus torques FNDC5-like protein RUMTOR_00181; recombinant, 6-His-tagged from E. coli
# Legend:
# [1] = test system: adipocytes; assay: Oil red O staining of lipids in adipocytes; assay type: cell-based, mouse
# Procedure: FIG. 10. […] Staining was performed on 10% formalin-fixed adipocytes according to the manufacturer's protocol.
# Oil red O staining of lipids in adipocytes was performed according to the protocol below: • (1) Fixation—Remove the medium and gently wash the cells twice with PBS. Add formalin (10%) to the cells and incubate for 30 minutes • (2) Discard the formalin and wash the cells twice using sterile water. Add 60% isopropanol to the cells and incubate for 5 minutes • (3) Discard 60% isopropanol and cover the cells evenly with Oil Red O Working Solution. Rotate the plate or dish, and incubate for 15 minutes • (4) Discard the Oil Red O solution and wash the cells four times with water until no excess stain is seen • (5) Add hematoxylin to the cells and incubate for 1 minute. Discard hematoxylin and wash the cells four times with water • (6) Cover the cells with sterile water and view under microscope. Lipid droplets appear red, and nuclei appear blue
# [2] = test system: H9C2 cardiomyoblasts; assay: Gene expression in H9C2 cardiomyoblasts; assay type: cell-based; details: q-PCR
# Procedure: FIG. 13. […] The cells were treated with various doses of RUCILP2, and cells were collected for q-PCR quantification on indicated genes. For integrin inhibitor treatment, cells were treated with 10 uM of cRGDyK (Selleckchem, #S7844) for 10 minutes and washed with PBS before treated with RUCILP2. Data are presented as mean+/−SEM of one representative experiment done in technical triplicate. Statistical significance was determined by unpaired two-tailed Student's t-test. *, p<0.05 vs 0 nM RUCILP2.
# Commercially available H9C2 cells (ATCC, #CRL-1446) were seeded on 12-well plates under DMEM/F-12 medium (Dulbecco's Modified Eagle Medium/Nutrient Mixture F-12, Fisher Scientific, #11524436), supplemented with 10% FBS (Fetal Bovine Serum, Fisher Scientific, #11550356) and 1% Penicillin-Streptomycin (Fisher Scientific, #11548876). Cell cultures were maintained in a humidified chamber with 5% CO2 at 37° C., and culture media were changed every 2-3 days.
# At 70% confluence, the cells were treated with indicated concentrations of recombinant RUCILP2, commercial recombinant irisin (Sigma, #SRP8039-10UG and Phoenix pharmaceuticals, #067-29A), and PBS for 24 h. For integrin inhibitor treatment, cells were treated with 10 μM of CycloRGDyK (Selleckchem, #S7844) for 10 minutes and washed with PBS before treated with recombinant RUCILP2, commercial recombinant irisin and PBS. […]
# [3] = test system: perfused rat colon; assay: Hormone release in the isolated perfused rat colon
# Source text: FIG. 14. Recombinant RUCILP2 stimulates glucagon like peptide-1 (GLP-1) secretion in perfused rat colon when RUCILP2 is perfused through the luminal route. Left, GLP-1 secretion from the isolated perfused rat colon in the presence of RUCILP2, means±SEM, n=6 in each group. Right, baseline subtracted total GLP-1 output during 10-min (minutes 12-21) luminal infusions. **, p<0.01 using Student's t test.
# FIG. 15. Recombinant RUCILP2 stimulates Peptide-YY (PYY) secretion in perfused rat colon when RUCILP2 is perfused through the luminal route. Left, PYY secretion from the isolated perfused rat colon in the presence of RUCILP2, means±SEM, n=6 in each group. Right, baseline subtracted total PYY output during 10-min (minutes 12-21) luminal infusions. **, p<0.01 using Student's t test.
# FIG. 16. Recombinant RUCILP2 stimulates somatostatin secretion in perfused rat colon when RUCILP2 is perfused through the luminal route. Left, Somatostatin secretion from the isolated perfused rat colon in the presence of RUCILP2, means±SEM, n=6 in each group. Right, baseline subtracted total Somatostatin output during 10-min (minutes 12-21) luminal infusions. *, p<0.05 using Student's t test.
# Animals: Male Wistar rats (˜250 g) were obtained from Janvier (Le Genest-Saint-Isle, France) and housed with two to four rats per cage. Rats were allowed one week of acclimatization kept on a 12:12 h light/dark cycle with ad libitum access to water and standard chow.
# Isolation and perfusion of the proximal rat colon: At the day of experiment, non-fasted rats were anaesthetized with a subcutaneous injection of Hypnorm/Midazolam (0.0158 mg fentanyl citrate+0.5 mg fluanisone+0.25 mg midazolam/100 g). When lack of reflexes was established, rats were placed on a heating plate (37° C.) and the abdominal cavity opened. […] A plastic tube was placed in the lumen of the colon, and the colon was gently flushed with isotonic saline (room temperature) to remove luminal contents. Throughout the experimental protocol, a constant luminal flow of saline was applied via a syringe pump (0.15 ml/min). […] A metal catheter was inserted into vena portae to collect the venous effluent. […] As an indicator of health of the colon, perfusion pressure was monitored throughout the experiment. […]
# Hormone measurement: Peptide hormones were measured using in-house radioimmunoassays: total GLP-1 (the sum of 7-36NH2, 9-36NH2 and potential mid-terminal cleaved fragments) was measured using a C-terminal specific antibody targeting amidated forms of GLP-1 (code no. 89390). Total PYY (PYY1-36+PYY3-36) was measured with a porcine antiserum (cat. no T-4093; Bachem). Somatostatin was measured using a side-viewing antibody (code no. 1758-5), detecting all bioactive forms of somatostatin.
molecule,measurement,setting,value
B1,lipid content in adipocytes (oil red O staining),[1],reduces lipid content
same,gene expression in H9C2 cardiomyoblasts (markers of cardiomyogenesis),[2],stimulate gene expression
same,gut luminal release of Glucagon-like-peptide-2 (GLP-2),[3]; luminal infusion,stimulatory effects
same,GLP-1 secretion,[3]; luminal perfusion,stimulates
same,Peptide-YY (PYY) secretion,[3]; luminal perfusion,stimulates
same,somatostatin secretion,[3]; luminal perfusion,stimulates
